Source: patent US20250136696A1 (HARBOUR BIOMED SHANGHAI, published 2025)

T1: human B7-H7 on the cell surface (human, UniProt Q9UM44 23-414)
T1 construct: whole, on cells; also called hB7-H7; hu B7-H7
T1 sequence (looked up): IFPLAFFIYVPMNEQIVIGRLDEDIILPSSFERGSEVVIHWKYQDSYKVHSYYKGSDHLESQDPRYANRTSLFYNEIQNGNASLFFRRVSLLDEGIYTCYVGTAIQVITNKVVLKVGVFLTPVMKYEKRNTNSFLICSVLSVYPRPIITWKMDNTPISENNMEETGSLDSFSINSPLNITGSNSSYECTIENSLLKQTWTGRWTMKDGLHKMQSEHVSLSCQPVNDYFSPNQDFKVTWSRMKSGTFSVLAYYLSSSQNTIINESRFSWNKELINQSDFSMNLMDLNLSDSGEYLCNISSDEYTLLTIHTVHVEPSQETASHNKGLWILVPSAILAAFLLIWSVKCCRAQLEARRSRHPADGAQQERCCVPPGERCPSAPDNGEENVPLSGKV

T2: biotinylated human B7-H7 protein (Acro Biosystems, B77-H82F5) (human, UniProt Q9UM44 23-344, biotinylated)
T2 construct: Bought soluble protein; also called biotin-B7H7 protein
T2 sequence (looked up): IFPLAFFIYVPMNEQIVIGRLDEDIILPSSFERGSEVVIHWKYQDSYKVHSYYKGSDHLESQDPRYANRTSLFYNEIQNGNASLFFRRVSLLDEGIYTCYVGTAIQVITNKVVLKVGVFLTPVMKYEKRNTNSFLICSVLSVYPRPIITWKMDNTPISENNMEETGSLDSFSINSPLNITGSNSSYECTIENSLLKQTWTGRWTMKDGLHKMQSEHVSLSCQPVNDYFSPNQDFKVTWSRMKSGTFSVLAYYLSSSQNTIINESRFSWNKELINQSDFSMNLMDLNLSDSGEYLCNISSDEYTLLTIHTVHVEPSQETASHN

T3: human B7-H7 recombinant protein (human, UniProt Q9UM44 23-344)
T3 construct: also called human B7-H7 protein
T3 sequence (looked up): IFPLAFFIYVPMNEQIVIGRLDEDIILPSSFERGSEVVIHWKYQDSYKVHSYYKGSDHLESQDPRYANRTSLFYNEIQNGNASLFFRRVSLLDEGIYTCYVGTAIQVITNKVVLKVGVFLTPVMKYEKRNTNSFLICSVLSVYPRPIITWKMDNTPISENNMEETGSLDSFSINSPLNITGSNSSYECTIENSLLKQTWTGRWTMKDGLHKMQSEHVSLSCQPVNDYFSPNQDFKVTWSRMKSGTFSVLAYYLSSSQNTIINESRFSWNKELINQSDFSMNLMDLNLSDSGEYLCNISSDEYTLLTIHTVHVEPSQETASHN


How the values were obtained:
[1] = target: T4, Human KIR3DL3 protein (Sino Biological, 16055-H08H) (human, UniProt Q8N743 26-322); assay: ELISA, coated KIR3DL3, biotinylated protein detected with StrepTactin-HRP
T4 construct: Coated on the ELISA plate
Protocol: After the liquid was discarded, the plate was washed 3 times with a PBS buffer, 200 μl of PBS blocking solution containing 1% BSA was added, and the plate was incubated for 1 hour at room temperature. The blocking solution was discarded, and the plate was washed 3 times with a PBS buffer. […] The antibodies to be tested were subjected to 3-fold concentration dilution from 100 nM, with a total of 8 gradient concentrations. 100 μl of the diluted antibody was added to each well, and the plate was incubated at 4° C. overnight.

[2] = target: T1, human B7-H7 on the cell surface; assay: flow cytometry, HCC827 cells
Protocol: This example was intended to study the in vitro activity of H2L2 monoclonal antibodies against human B7-H7 in binding to human/cynomolgus monkey B7-H7. Since homologous molecules of B7-H7 were not present in mice, the detection was not performed. […] The cells were adjusted to a cell density of 1×10⁶ cells/mL, respectively. The cells were seeded in a 96-well V-bottom plate (Corning, #3894) at 100 μL/well, and the antibody to be tested at 2× final concentration with 3-fold concentration gradient dilution was then added at 100 μL/well. The cells were incubated at 4° C. for 2 hours in the dark. After the incubation, the cells were rinsed twice by adding pre-chilled PBS containing 2% BSA at 100 μl/well, and centrifuged at 500 g at 4° C. for 5 minutes, and the supernatant was discarded. […] The cells were washed twice by adding pre-chilled PBS containing 2% BSA at 100 μL/well, and centrifuged at 500 g at 4° C. for 5 minutes, and the supernatant was discarded. Finally, the cells were resuspended in pre-chilled PBS containing 2% BSA at 200 μL/well, and the fluorescence signal values were read using an ACEA Novocyte3000 flow cytometer.

[3] = target: T2, biotinylated human B7-H7 protein (Acro …); assay: flow cytometry, blocking of biotinylated human B7-H7 binding to HEK-293/CD28H cells
Protocol: This example was intended to study the in vitro blocking activity of human anti-B7-H7 antibodies against the binding of human B7-H7 to its receptor CD28H. […] The cells were adjusted to a cell density of 1×10⁶ cells/mL. […] The cells were incubated at 4° C. for 1 hour in the dark. […] The cells were rinsed twice by adding pre-chilled PBS containing 2% BSA at 100 μL/well, and were centrifuged at 500 g at 4° C. for 5 minutes, and the supernatant was discarded. A fluorescent secondary antibody (PE Streptavidin, BD, Cat #: 554061, 1:200) was added at 100 μL/well, and the cells were incubated at 4° C. for 30 minutes in the dark. The cells were washed twice by adding pre-chilled PBS at 200 μL/well, and centrifuged at 500 g at 4° C. for 5 minutes, and the supernatant was discarded. Finally, the cells were resuspended in pre-chilled PBS at 200 μL/well, and the fluorescence signal values were read using an ACEA Novocyte3000 flow cytometer. IC50 was calculated.

[4] = target: T2, biotinylated human B7-H7 protein (Acro …); assay: flow cytometry, blocking of biotinylated human B7-H7 binding to CHO-K1/KIR3DL3 cells
From the text: This example was intended to study the in vitro blocking activity of human anti-B7-H7 antibodies against the binding of human B7-H7 to its receptor KIR3DL3. A CHO-K1 cell (CHO-K1/KIR3DL3, Harbour BioMed US, Inc.) overexpressing human KIR3DL3 was used in experiments at the cellular level where human B7-H7/human KIR3DL3 binding was blocked. Briefly, the CHO-K1/KIR3DL3 cells were digested and resuspended in PBS containing 2% BSA. The cells were adjusted to a cell density of 1×10⁶ cells/mL. […] The cells were incubated at 4° C. for 1 hour in the dark. […] The cells were rinsed twice by adding pre-chilled PBS containing 2% BSA at 100 μL/well, and were centrifuged at 500 g at 4° C. for 5 minutes, and the supernatant was discarded. A fluorescent secondary antibody (PE Streptavidin, BD, Cat #: 554061, 1:200) was added at 100 μL/well, and the cells were incubated at 4° C. for 30 minutes in the dark. The cells were washed twice by adding pre-chilled PBS at 200 µL/well, and centrifuged at 500 g at 4° C. for 5 minutes, and the supernatant was discarded. Finally, the cells were resuspended in pre-chilled PBS at 200 μL/well, and the fluorescence signal values were read using an ACEA Novocyte3000 flow cytometer. IC50 was calculated.

[5] = target: T3, human B7-H7 recombinant protein; assay: BLI (Octet), antibody captured on AHC sensor, human B7-H7 in solution, 1:1 global fit
Protocol: The binding kinetics between antigen and antibody was analyzed using an Octet Red 96e (Fortebio) molecular interaction analyzer by biolayer interferometry (BLI) technology.
For determining the affinity of antibodies for antigens, the rotary speed of the sensor was set at 1000 rpm. AHC sensors (Fortebio, #18-5060) placed in one column were first equilibrated in a test buffer for 10 minutes, and then used to capture the anti-B7-H7 antibodies at a capture height of 0.7 nm; and after being equilibrated in the buffer for 120 s, the AHC sensors bound to human B7-H7 (concentrations: 50-3.125 nM and 0 nM) with 2-fold gradient dilution for 180 s and dissociated for 300 s. The AHC sensors were finally regenerated by immersing in a 10 mM glycine-hydrochloric acid solution with pH 1.5 to elute the protein bound to the sensors.
For data analysis using Octet Data Analysis software (Fortebio, version 11.0), 0 nM well was used as the reference well, reference subtraction was performed, “1:1 Global fitting” method was selected for data fitting, the kinetic parameters of the binding of the antigen to the antigen-binding protein were calculated, and the kₒₙ (1/Ms) value, kdis (1/s) value and KD (M) value were obtained.

[6] = target: T2, biotinylated human B7-H7 protein (Acro …); assay: BLI epitope competition on SA-captured biotinylated B7-H7; competitor (first antibody) PR003249
Protocol: (§1) Epitope competition experiments were performed on the anti-B7-H7 antibodies using the ForteBio Octet Red96e platform with the same experimental buffer as described above. […] After being equilibrated in a buffer for 120 s, the sensors were immersed in various antibodies diluted to 100 nM for 240 s, and the final signal of the antibody binding to B7-H7 was recorded as the 100% signal for that antibody. Second step, epitope competition experiment: B7-H7 was captured using SA sensors at a capture height of 0.25 nm. The sensors were immersed in a first antibody (concentration: 100 nM) for 240 s, then the SA sensors were immersed in a mixture of the first antibody and a second antibody (final concentration of both antibodies: 100 nM) for 240 s, and the difference in signals before and after immersing the sensors in the mixture of the two antibodies was recorded as the signal for that antibody as the second antibody. The inhibition rate was calculated by the following equation, […]

[7] = target: T2, biotinylated human B7-H7 protein (Acro …); assay: BLI epitope competition on SA-captured biotinylated B7-H7; competitor (first antibody) PR003251
Protocol: as §1

T4 sequence (Q8N743 26-322 limits assumed): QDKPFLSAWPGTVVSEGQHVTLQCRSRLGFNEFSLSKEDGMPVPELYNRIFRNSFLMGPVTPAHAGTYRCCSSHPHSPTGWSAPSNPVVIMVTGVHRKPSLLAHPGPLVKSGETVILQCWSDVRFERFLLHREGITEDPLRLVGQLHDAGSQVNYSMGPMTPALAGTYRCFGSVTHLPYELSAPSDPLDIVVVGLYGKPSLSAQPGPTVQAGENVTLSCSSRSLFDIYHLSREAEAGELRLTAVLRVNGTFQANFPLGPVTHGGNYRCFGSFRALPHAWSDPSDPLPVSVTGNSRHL

| binding result [1] | EC50 [2] | Maximum MFI [2] | IC50 [3] | IC50 [4] | Maximum inhibition rate (%) [4] | Kd [5] | koff [5] | kon [5] | Competitive inhibition rate (%) [6] | Competitive inhibition rate (%) [7] | Binder |
| --- | --- | --- | --- | --- | --- | --- | --- | --- | --- | --- | --- |
| no binding (tested: 6 µg/ml) |  |  |  |  |  |  |  |  |  |  | Biotin-B7H4 protein (Acro Biosystems, B74-H82E2) (ligand, UniProt Q7Z7D3 29-258, looked up, biotinylated, also called negative control protein) FGISGRHSITVTTVASAGNIGEDGILSCTFEPDIKLSDIVIQWLKEGVLGLVHEFKEGKDELSEQDEMFRGRTAVFADQVIVGNASLRLKNVQLTDAGTYKCYIITSKGKGNANLEYKTGAFSMPEVNVDYNASSETLRCEAPRWFPQPTVVWASQVDQGANFSEVSNTSFELNSENVTMKVVSVLYNVTINNTYSCMIENDIAKATGDIKVTESEIKRRSHLQLLNSKA |
|  | 2.55 nM | 25100 MFI | 71.7 nM | 10.4 nM | 96.7% | 26.3 nM | 0.00205 s⁻¹ | 78100 M⁻¹ s⁻¹ | 77% | 5.32% | PR003181 (antibody, human IgG4 S228P, kappa, also called Control antibody 1; positive control) heavy: not shown light: DIVMSQSPSSLAVSAGEKVTMSCKSSQSLLNSRTRKNQLAWYQQKPGQSPKLLIYWASTRESGVPDRFTGSGSGTDFTLTISSVQAEDLAVYYCKQSYNLRTFGGGTKLEIKRTVAAPSVFIFPPSDEQLKSGTASVVCLLNNFYPREAKVQWKVDNALQSGNSQESVTEQDSKDSTYSLSSTLTLSKADYEKHKVYACEVTHQGLSSPVTKSFNRGEC |
